Results from a protein production outcome set (Wang et al. 2014).

Assay: label from the status in PepcDB records

In the case of “MLSGKKTILVFSMLFATFSSHADNFPKLNQALPSGIDARAIAPVFDFDTDGCLPSAGVSRSGVQNGGLKPSGNITGGCRWSNFLDSSNTLHRYACVNSAGSRYCGSFYALYFLKDQILNGVNSGHRHDWEHVAIWTKNGVVTHGSYSAHGKLTTKEASSIDKQDGHLKFSYHKDGPLTHAFRFSKTNEQAENPYGKFVTPDLISWYLMFGDGINNQELRNLLNAFDYGSASIPLKDGNFLTNLNNGRPAGYPEFTDASITVSK”, the protein production is reported as “failed”.

In the case of “MEQQEEKRKIKAYQRKSKRSKSGSSSIPLDLVSEILLRLPEKSVARFRCVSKPWSSITTEPYFINLLTTRSPRLLLCFKANEKFFVSSIPQHRQTFETWNKSHSYSQLIDRYHMEFSEEMNYFPPTESVNGLICFQESARLIVWNPSTRQLLILPKPNGNSNDLTIFLGYDPVEGKHKVMCMEFSATYDTCRVLTLGSAQKLWRTVKTHNKHRSDYYDSGRCINGVVYHIAYVKDMCVWVLMSFDVRSEIFDMIELPSSDVHKDVLIDYNGRLACVGREIIEKNGIRLWILEKHNKWSSKDFLAPLVHIDKSLSTNKFLLKGFTHAGEIIYVESMFHKSAKIFFYDPVRNTSRRFELKGFTDDEFVLSNEHGYTLHVFPNHVESQISFT”, the protein production is reported as “failed”.

In the case of “MTGGLLVTGGSGAIGGALCRIAARQHPVWVGYGAGAGRARALAAEITQAGGRAEPLALPLQDPAALETALAALPEPPASLALCAWPAPFVAPFGRQGEDLALQAAALAGCHALIATAWRLWWRRAGGGHVLAVLSAASEPPVARHMAAYVAQKAALRALLAAAAAELGPAGLRVSVVAPGFVETPMLGAFDPRLLERARADAGGRFLSPERVAQALVAALDAPPPAGTVQDIHLAEEVESDEKQTA”, the protein production is reported as “failed”.

For “MTIAILPARLANQIAAGEVVERPASVIKELIENSLDAGATSIHIDVDKGGIKKIKITDNGHGIVKEELTLALSRHATSKIKSLNDLEAIGSLGFRGEALASISSVARLTLTSKPQSQATAWQAVAEGRDMSVNIKPAAHPDGTSIEVLDLFFNTPARRKFLRTEKTEFNHIDEVVRRIALAHFEVSFSLTHNGNTVRQYRMASTHAQCIKRVAMVCGPKFIEHAVEVDCPHDNMTLSGWLAKPSFSRSQNDLCYSYVNGRMMRDKLINHAIRQAYADLLPPDTYPAFVLFLQLDHREVDVNVHPSKHEVRFHQSRYVHDFIYSVCHKALTSALAGEELFTTADSDLALVPEQSYSSLGANDRQGSHSSNTPTLNYPSADYIRPLQHVNDASNSQSTSSYSGYGQQHKTNAISKIAASNYQALMTPDKGSSAQVQNTSGSDQASAQKHETTTLQNSTDQSAFLSVHQPGYALYKTENGVRVLSLFKLAKSTYGKLVEQSWQNKTEQSDCPVECLVSQPLLLPVILSLSEQQLSFVLAEQEILSNAGIVFIQQHKNKIQIRQFPALLREQDVSNALIIIIEELIEKRSFTEGEALCETNLHQSIGLAMVLAEYDETQADILLRLTKKLFHEQLSQQLLLNSIPLDLTSHIKTLF”, the protein production was “failed”.

For “ARDPAKLKQVAGQPRLREAVIRLMRGTDVIRVKMYALNGITLFSTDASQIGEDESDDDGFRSAAAGTPASELAHNHSIDAFERTLTDRDIISTYVPVHDPAGKIEGVLEIYLDATPFVADSDQQ”, the protein production was “failed”.

With “MEPIVFNGYHTLITATLVLLVGRFFVNKIKVLQDFNIPEAVAGGLIAAVAILCLYNWFGVSLQFEQSLQNAFMLAFFSSVGLSADFSRLKQGGMPLVIFLVVVSLYIIIQNVIGVGLASALGLDPMIGLLTGSITLTGGHGTGAAWAKIFSEEYNITGVMEMAMASATFGLVAGGLIGGPIARRLINKMKKDRSQQITKRVDTSAEQYDGSTFEDHDSIRYITASSTIETMALFAACLGFSSIIVNTFPDISLPQFVWALGFGVILRNVLTKVFKFDMFDRAIDVFGNASLSMFLAMALMSIKLWELTGLAGPMLIILVVQTLVMILYGYFVTYRVMGKDYDAAILTAGHCGFGLGATPTAVANMQSVTEKFGSSHKAFLIVPLVGAFFVDILNLAVITSFVDFLR” the protein production was “failed”.

In the case of “MTEFALDTSTGITIIVLFGVFWVAFGYWLGRKNRSHEDFALAGRNVGFAFAAATAMATWVTSNTTLVAPQLTYQFGIWGMVGYSFAALGLVLFAPMAKRIKELLPNGYTSGDFVRLRYGNLAWLVFIIISVVYAFGWLISLGMAGGILLESLSGLDYHIGMTTILVICVGYTLFGGMRAVIATDFIQALIIIVGVSFIAYWIIDNVGLESIHSNLTSEHPQLLDMLFPAAVMFLFNNIFFGLGEIFHSNVWWSRALSFKKNVAYKAYLTGGLLWLPIPIVTGFIALAAPQLGIFPPSPDMIGPTVAAAVLGKAGAIIVFIVIFSALASSLDSLLAATSDLVTQDIFHKKLKPKASDKTLMRFNRSCILGLGVVTWLLCLPRVATLGALLNFAGAFVASTIWPIVLGLYHRRLTGTYAACAMGFGTAFGMLSYFVVGFYVAALVSCAVSGLICLVGIFRSSDKFDWDTLNEKEQSNANQ”, the protein production is reported as “failed”.

In the case of “MTLVVPFDGSELAEAALVRAAEFGTVFEEDVLAVSVIRNGNAKYAREHDWIGPNEDFDLEAVVTSLHEQVIDLCPSSDFRHTVVDRYAPAGAVAKAIRKLAKREDASMVFIGSENAGHLVTSISSVGGSIASDDAYDVVIVRHRNPSKIAKLRNTSPHRQSKSDFYLPE”, the protein production is reported as “failed”.

With “MLVSPDTPRFLAARLLLGAWLACGAGAQAQTLLDTSAAIGVQNTLNQIQPGVTQVPGSLSVQFDACKMAPESCKDGQPIGAAPAPATSGQSAQNAQSAQPAPSQVAPAAPTTPTQTTPTPAGEAPATRPVPTVVPLTAEQQQLLQAAQAQFAAGRYPQARNEFEALIVRNYNNPEPHFGLGLALYQLGDLRGATFEFGQFMQFAPQRYEGPYNLGVIATREGRYPDALRLYGEALTLAQSAPPAARQVLLRALATEQGRVKDYVALAATYADLRAADPENVEYIFRHAQALYQAGQVADALPVTYAVLERKPSSLQAALLLADLYVAQGLPDRAVRELSAAAARVLTGTDRATLLLRQSDLLLAQNNLRGALNAASEARQEDRRLPAAIIREAELLAQFGQRPAAVRAYRDALALTPKSAPIQAALAALYLEGNQYPEAAQAAQQALKLTPDASTRARALYVQGVVAYRQGQYTQARTALNSSVLAVPDADSLLWLGLSYYALKDYASAVPVLSESVRLRPTPAARQNLAAALLATARYAEAEALLRGLVTDEVKNAEGWYLLGLSQRAQQRPDDARQSFKTAAGLGSARAKDALK” the protein production was “failed”.

For “MSERVCAVIVTYNRKALLRECLKAVLSQTRPPDHVLVVDNASTDGTPEMLQEEFPQVEVLRLPENQGGAGGFHEGMKRAYEQGVDWLWLMDDDTIPKAKALEALLEAARLPLDPRPRVLASRQLLPNGLPHPTTAFVNPTDPRHPFLWLRLRPRYRPIRWALFTSVLLHRSLVEEHGLPHKAFFIWEDDLEYTARALRRGLGLQVRDSEVIHKSASKPYISATTGENRLFYGVRNRIWVLRSPAFGPLGKAFLALQLLFGLLTYLAFHPSQKSLQEIGRALRAGLTTSPCLEHHHHHH”, the protein production was “failed”.

With “MTKPILKKKERVDQLFSTDVKIIQNKEVFSYSIDSVLLSRFPKIPSRGLIVDLCSGNGAVGLFAATRTKAKIIEVELQERLADMAQRSIQLNDLTNQVSMIRDDLKNLLDHVPRSKVDLILCNPPYFKAAETSKKNLSEHYLLARHEIATNLEEICKISQQVLKTNGRLAMVHRPDRFLEIIDTFKKYKLAPKRLQFVYPKLGKDANMLLIETIKDGSPNGMKILPPLIVHKDNGDYTDNIHEIYFGKGHQAYMYVLKCADDSLYTGYTTDIKKRLATHNAGKGAKYTRARLPVELIYVEQFNHKNAAMSAEGKLKQKTRAQKLHYIEEHQHINLVSQF” the protein production was “failed”.

With “RYREGLSEALKEPEAKDPGFLERLVALYEEGGEDLLTPPGRVDVRVGEVEGLALVQAGFQKGEWLGELTLIGPLRMRYAEALSVAFSLSQVYTGQHAD” the protein production was “failed”.

With “MAKKVAVLAVNPVNGCGLFQYLEAFFENGISYKVFAVSDTKEIKTNSGMVLIVDDVIANLKGHEDEFDALVFSCGDAVPVFQQYANQPYNVDLMEVIKTFGEKGKMMIGHCAGAMMFDFTGITKGKKVAVHPLAKPAIQNGIATDEKSEIDGNFFTAQDENTIWTMLPKVIEALK” the protein production was “not failed”.

In the case of “MVNPIVVAAKQGQWQLVQEYLFAAASDQVNQRDERGLTVLMYAVASLEMTTVKQLLQAGADPNRSRPPHGITPLMLLAGLQSNPNNPEKNPVQQAIAAMLMEFGAEVNQGNDDGTTALMMAAYRNNLPLVETLLAGGARAKIQDQQGTTALEWAIKQQNLSMVRKLIEHHAPLDLSDGDGNLPLTLAIKTGDRVIVDYLLQAGAPWDQNGWFTAVEEGNVDQVKAFIQGGYPLTQAGDGGDTALHIACLEGYQSMVTILLEKGPKDMVNAVNQAGDTALHLAIAQGHVEIVTQLLNAGADGNFSSNGEPPLLTALTATHGNAQTQAVMVNALGRAGVDLDQTLWEGKTPLMLAAMANLAAVITTIANYSVQVNRGDPNGSTALMWACHRGHGAAVEALLTNFPALDLNLKNQGGQTALDLARLNHHGAIVALLESYISRSA”, the protein production is reported as “failed”.

In the case of “DVAYELPAHTTRAQLSIDLVNNGDVEQQEKINSMRFIVFGSTPGGVRLDVNEHILLSTPETATDIDAQLLEVTSSNDILVVVIANEPQSLTSQLDGIANLLTLQEMIYDISSILNSDGQIISATGMPMTGVIRDISIAPDETKTVQMVIERAVARVDVFIEAIDGGAVTGYTAGSTSVTLHNFSHDSYFVMGNVGNGTRDNADSSKNYGKVKEDVSESNLLTHSWTAATTETWAYSSAPGAENRKLLCSFYTAERLFKSDYSDRLSISMANVLKGPSDVTGITGKVIESVTKVDGTGSPTAQPFTEIRRNNVYQVTARVGKIGIQILTISVEDWGERQDIDLDMDL”, the protein production is reported as “not failed”.

For “MARCAVFLEELWFALFAWVPTVLGTAVRLVAWRPLFRLLGGVCGKVRFGQSLTLQGAGHMRLADGVRLGKGCHLYARTGELVMGENAALNINVVVDADGGTVRIGAHATVGPGTVIRAANHRFDRLDTPIMFQGHEYGEVVIDDDVWIAANCTVVPGVHIGRGAVVGAGAVVTKDVEPYTVVAGVPARFIRRRGPAE”, the protein production was “failed”.

For “MDHSLNSLNNFDFLARSFARMHAEGRPVDILAVTGNMDEEHRTWFCARYAWYCQQMMQARELELEH”, the protein production was “not failed”.

With “MSLSLLITSITINTSHLQGMLGFYRIIGFQFTASKVDKGSEVHRAVHNGVEFSLYSIQNPQRSQIPSLQLGFQITDLEKTVQELVKIPGAMCILDPTDMPDGKKAIVLDPDGHSIELCELEGHHHHHH” the protein production was “not failed”.

For “MYIICSQFSASEPVNPYALLGAAIVSELLGTTSLKLSEGFSRPVPSLGVVVGYGLAFYLVSLTLEDLPIGVVYGTWAALGIVGVAAIGIVVFDEPIDLPGAVGILLIIIGVYCVNVLSEMSAH”, the protein production was “failed”.

For “MLWFGQPGPGGWNRKCLRPFTLPRGQHPQPSYGFPQVNEVVFSPGESHCATCSEDGSVRVWALASMELVIQFQVLNQSCLCLAWSPPCCGRPEQQRLAAGYGDGSLRIFSVSRTAMELKMHPHPVALTTVAFSTDGQTVLSGDKDGLVAVSHPCTGTTFRVLSDHQGAPISTICVTCKETQGHLPPSLAAFCPWDGALLMYVGPGVYKEVIIYNLCQKQVVEKIPLPFFAMSLSLSPGTHLLAVGFAECMLRLVDCAMGTAQDFAGHDNAVHLCRFTPSARLLFTAARNEILVWEVPGL”, the protein production was “failed”.

In the case of “MTEPNNPHRPDEAGVSGWPSEAGRDPYGQPSNPYQMPAPYSSGLPVAENHRRPYVDFGLAIKLFFKNYAVFRGRASRSEYWWTVLFNFIIAVAIQALMPILQGVGLMSAITSNSTTEFSAMSTSGVIFTMLPLAWLLAIIIPCLALTVRRLHDVNHSGWWVMAPTLCGIVSAIMMILAFVSAAANDGKPSMALLTIGIVLFVAIFVVNIILLIFVISDSHPEAWKKYDKEPLPVTE”, the protein production is reported as “failed”.

In the case of “MGVKRKKMGKVAGFTEWTAEDLEAFRARWPIGTAQRLALELYQWTGARCVDVIRLGPQMVGRDGVLTYVQQKTGNPAHVPWTCPAFGLEEQRADLMRCLPVGSPVYMLTEYGKPRTQKGVSQWFSAAAREAGLESRTAHGLRKYRMNALAEHGASVLVMQSWVGHTTLLEVQEYTRLEHHHHHH”, the protein production is reported as “not failed”.
